Laboratory results reported in US5851983A, “Elastase inhibitory polypeptide and process for production thereof by recombinant gene technology” (Teijin Limited, priority 1987, dated 1998).

Key:
[1] = biological target: T1, polymorphonuclear leucocyte elastase from human sputum (Homo sapiens, UniProt P08246); assay: Simultaneous treatment with healthy human saliva and elastase (Examples 28, 29); type: in vitro ADME; details: 37° C.
T1 construct: Polymorphonuclear leukocyte elastase from human sputum (EPC Co; Funakoshi Yakuhin); purchased EPC Co. (via Funakoshi Yakuhin); host or cells: human sputum
T1 sequence (P08246 30-267): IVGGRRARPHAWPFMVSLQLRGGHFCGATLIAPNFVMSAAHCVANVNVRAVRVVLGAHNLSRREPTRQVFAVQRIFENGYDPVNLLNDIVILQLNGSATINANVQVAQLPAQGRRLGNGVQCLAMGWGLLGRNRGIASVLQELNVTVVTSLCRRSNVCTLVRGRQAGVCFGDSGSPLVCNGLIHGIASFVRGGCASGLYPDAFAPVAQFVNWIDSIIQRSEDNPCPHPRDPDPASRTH
Experimental: (1) Healthy human saliva was ultra-filtered through a 0.22 μm filter (Millex GS, Millipore), and to the filtered saliva were added SLPI and polymorphonuclear leucocyte elastase from human sputum (EPC, Funakoshi Yakuhin) to a final concentration of 50 μM respectively. The mixture was incubated at 37° C., samples were taken as time elapsed, and analyzed by SDS-PAGE as described in Example 27.
(2) Next, the band J was transferred to a membrane as described in Example 27, and N-terminal amino acid sequence was analyzed.
(1) According to the same procedure as described in Example 28, to healthy human saliva were dissolved SLPI and polymorphonuclear leucocyte elastase from human sputum to final concentrations of 50 μM and 100 μM respectively, and the mixture was incubated at 37° C. Samples were taken as time elapsed, and analyzed by SDS-PAGE.
(2) Next, N-terminal amino acid sequence of the band M was analyzed as described in Example 27.

[2] = biological target: T2, Human plasma thrombin (Homo sapiens, UniProt P00734); assay: Assay for thrombin inhibitory activity (Example 25); type: biochemical; details: final concentration up to ×10^-5 M; enzyme 3 × 10^-9 M
T2 construct: (5) Human plasma thrombin (Kabi, Daiichi Kagaku Yakuhin); purchased Kabi (via Daiichi Kagaku Yakuhin); host or cells: human plasma
Experimental: F. Human plasma thrombin (Sigma)
Buffer: Buffer solution for each enzyme is as follow. Thrombin and FXa: 50 mM Tris-HCl, 7.5 mM EDTA-2Na, 175 mM NaCl (pH 8.4) […]
(§1) Substrate solution: for the enzymes F, G, H and I, the following substrate f, g, h or i, respectively, was dissolved to a final concentration shown in Table 14.
f. H.D-Phe-Pip-Arg-pNA (Kabi Vitrum)
(§2) To wells of an ELISA 96-well microtiter plate, were added a solution of (Arg^59 -Ala^107) SLPI obtained in Example 23 and then the enzyme solution, and the mixture was incubated at 37° C. for 10 minutes. Next, the substrate solution was added to develop the color, whose absorption was then measured at 405 nm. As a control, SLPI was used.

[3] = biological target: T3, Human plasma plasmin (Homo sapiens, UniProt P00747); assay: Assay for plasmin inhibitory activity (Example 25); type: biochemical; details: final concentration up to ×10^-5 M; enzyme 1.0 × 10^-7 M
T3 construct: (6) Human plasma plasmin (Kabi, Daiichi Kagaku Yakuhin); purchased Kabi (via Daiichi Kagaku Yakuhin); host or cells: human plasma
Experimental: G. Human plasma plasmin (sigma)
Plasmin: 50 mM Tris-HCl, 100 mM NaCl (pH 7.4) […]
as §1
g. H.D-Val-Leu-Lys-pNA (Kabi Vitrum)
as §2

[4] = biological target: T4, Bovine spleen trypsin (Bos taurus, UniProt P00760); assay: Assay for trypsin inhibitor activity (Example 24); type: biochemical; details: enzyme 2 × 10^-7 M, substrate 1.0 × 10^-3 M
T4 construct: purchased Sigma
T4 sequence (P00760 24-246): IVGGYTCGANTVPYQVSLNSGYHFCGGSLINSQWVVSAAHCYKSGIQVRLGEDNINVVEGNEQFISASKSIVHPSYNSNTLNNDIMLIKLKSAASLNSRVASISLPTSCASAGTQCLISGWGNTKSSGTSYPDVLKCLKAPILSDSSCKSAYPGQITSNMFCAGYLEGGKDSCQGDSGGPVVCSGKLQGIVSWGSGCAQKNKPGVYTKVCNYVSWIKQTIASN
Experimental: The following assay method was used.
Buffer: 0.1M (2-hydroxyethyl)piperazine-N'-2-ethansulfonic acid (HEPES), 0.5M NaCl, pH 7.5.
Enzyme concentration: the following enzyme was dissolved in the above-mentioned buffer to a concentration 9 times that shown in Table 12.
B. Bovine spleen trypsin (Sigma)
Substrate solution: for the enzymes A, B, C, D and E, the following substrate a, b, c, d or e, respectively, was dissolved in a solution of DMSO+the above-mentioned buffer (1:9) (note, final concentration of DMSO was 10% in the buffer) to a concentration of 9 times that shown in Table 12. […]
To wells of an ELISA 96-well microtiter plate, were added 120 μl of the buffer and the 20 μl of a sample solution of (Arg^59 -Ala^107) SLPI obtained in Example 23, followed by 20 μl of the enzyme solution. The mixture was reacted at 37° C. for 10 minutes. Next, 20 μl of the substrate was added, and developed at 37° C. The developed color was measured by absorption at 405 nm.
As a control the same procedure was carried out using SLPI.

[5] = tested on: Porcine FXa; assay: Assay for Fxa inhibitory activity (Example 36); type: biochemical; details: final concentration up to ×10^-5 M; enzyme 1.0 × 10^-8 M
Experimental: I. Porcine FXa (Daichi Seiyaku)
Thrombin and FXa: 50 mM Tris-HCl, 7.5 mM EDTA-2Na, 175 mM NaCl (pH 8.4) […]
Substrate solution: for the enzymes F, G, H and I, the following substrate f, g, h or i, respectively, was dissolved to a final concentration shown in Table 24.
i. Ratio 1:1 mixture of the following compounds: [drawing 6]
as §2, with “(Arg^58” for “(Arg^59”, “34” for “23”

T3 sequence (P00747 581-810 limits assumed): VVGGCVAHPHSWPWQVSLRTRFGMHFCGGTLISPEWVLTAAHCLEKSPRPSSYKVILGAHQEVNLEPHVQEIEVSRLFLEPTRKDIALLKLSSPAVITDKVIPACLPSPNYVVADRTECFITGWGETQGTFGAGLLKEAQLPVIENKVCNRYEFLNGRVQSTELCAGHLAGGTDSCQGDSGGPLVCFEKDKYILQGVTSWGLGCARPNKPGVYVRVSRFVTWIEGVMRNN
T3 sequence (P00747 97-580 partner limits assumed): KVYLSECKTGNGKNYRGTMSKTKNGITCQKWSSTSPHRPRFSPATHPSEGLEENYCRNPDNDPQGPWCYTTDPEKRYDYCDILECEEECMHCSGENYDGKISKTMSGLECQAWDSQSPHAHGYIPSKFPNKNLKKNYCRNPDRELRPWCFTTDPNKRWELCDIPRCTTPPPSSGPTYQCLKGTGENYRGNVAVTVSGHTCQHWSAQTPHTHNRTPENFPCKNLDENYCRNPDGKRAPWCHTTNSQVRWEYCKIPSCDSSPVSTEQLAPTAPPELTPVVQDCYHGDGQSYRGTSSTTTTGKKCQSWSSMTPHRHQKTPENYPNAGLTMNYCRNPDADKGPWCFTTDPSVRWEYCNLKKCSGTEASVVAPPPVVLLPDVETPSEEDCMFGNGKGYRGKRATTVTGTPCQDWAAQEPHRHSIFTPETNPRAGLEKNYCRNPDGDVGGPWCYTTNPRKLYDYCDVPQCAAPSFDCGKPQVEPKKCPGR

B1: SLPI: Human secretory leukoprotease inhibitor; recombinant SLPI of Reference Example 1 used as control (protein)
chain: SGKSFKAGVCPPKKSAQCLRYKKPECQSDWQCPGKKRCCPDTCGIKCLDPVDTPNPTRRKPGKCPVTYGQCLMLNPPNFCEMDGQCKRDLKCCMGMCGKSCVSPVKA
- SDS-PAGE bands on simultaneous treatment with healthy human saliva and elastase ([1]; 50 μM polypeptide, elastase 50 μM (Example 28) or 100 μM (Example 29)): after 96 hours, a new band J with a molecular weight of about 5,500 appeared
- cleavage site on simultaneous treatment with healthy human saliva and elastase ([1]; N-terminal sequencing of SDS-PAGE band): cleaved at the site between Thr^57 -Arg^58
- inhibitory activity to thrombin [2]: did not exhibit inhibitory activity
- inhibitory activity to plasmin [3]: did not exhibit inhibitory activity
- IC50 [4]: 330 nM
- inhibitory activity to FXa [5]: did not exhibit inhibitory activity
